This is an account of results in patent US20120149060A1 (EUROPAISCHES LABORATORIUM FUR MOLEKULARBIOLOGIE EMBL, published 2012).

Experiment [1] addresses T1, full-length human RAP74 with a C-terminal oligo-histidine tag (human, UniProt P35269 1-517).
T1 construct: Stated to be full-length; co-expressed with RAP30 in E. coli BL21(DE3); also called hRAP74; RAP74his; not shown: C-terminal oligo-histidine tag
T1 sequence (looked up): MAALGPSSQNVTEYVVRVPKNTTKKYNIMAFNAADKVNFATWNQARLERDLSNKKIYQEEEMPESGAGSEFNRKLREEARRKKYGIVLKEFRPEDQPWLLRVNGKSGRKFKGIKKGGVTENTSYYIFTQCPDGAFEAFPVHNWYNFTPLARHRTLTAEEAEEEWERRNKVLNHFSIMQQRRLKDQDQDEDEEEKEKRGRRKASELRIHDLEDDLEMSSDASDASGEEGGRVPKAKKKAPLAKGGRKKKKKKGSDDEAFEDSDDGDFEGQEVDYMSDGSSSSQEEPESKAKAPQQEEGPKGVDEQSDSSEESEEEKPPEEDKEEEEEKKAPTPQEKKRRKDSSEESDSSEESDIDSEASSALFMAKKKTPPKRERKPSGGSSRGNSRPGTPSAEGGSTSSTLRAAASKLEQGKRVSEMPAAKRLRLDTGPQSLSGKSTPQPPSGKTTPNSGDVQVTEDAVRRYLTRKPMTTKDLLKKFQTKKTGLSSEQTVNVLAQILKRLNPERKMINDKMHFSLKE
In words: co-expression in E. coli, Ni2+ capture by the His tag on RAP74, then S200 size exclusion chromatography.

The next experiment deals with T2, Pml1p (yeast, UniProt Q07930 1-204).
T2 construct: Stated to be full-length; subunit of the yeast RES complex; also called Pm1lp
T2 sequence (looked up): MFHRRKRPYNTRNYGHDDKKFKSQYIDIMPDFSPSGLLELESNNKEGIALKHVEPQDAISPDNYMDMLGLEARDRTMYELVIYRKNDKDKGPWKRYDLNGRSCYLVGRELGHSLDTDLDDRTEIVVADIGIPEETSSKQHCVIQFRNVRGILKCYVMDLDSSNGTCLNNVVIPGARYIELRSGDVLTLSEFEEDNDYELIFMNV
In words: co-expression in E. coli, Ni2+ capture by the His6 tag on Snu17p, then S200 size exclusion chromatography. (In general: In gel filtration, larger molecules generally elute earlier.)

A further experiment deals with T3, Bud13p (yeast, UniProt P46947 1-266).
T3 construct: Stated to be full-length; subunit of the yeast RES complex
T3 sequence (looked up): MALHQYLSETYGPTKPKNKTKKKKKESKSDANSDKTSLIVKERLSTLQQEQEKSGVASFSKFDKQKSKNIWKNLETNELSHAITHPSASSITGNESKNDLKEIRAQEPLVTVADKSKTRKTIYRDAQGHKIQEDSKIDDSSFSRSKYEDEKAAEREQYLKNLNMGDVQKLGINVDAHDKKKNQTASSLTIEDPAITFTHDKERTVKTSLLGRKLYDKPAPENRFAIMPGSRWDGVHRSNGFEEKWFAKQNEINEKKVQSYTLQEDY
The experiment is described as above.

For experiment [2], the target named is T4, Von Hippel Lindau protein (amino acids 54-213), fused at its N-terminus to a six-histidine-thioredoxin fusion … (human, UniProt P40337 54-213).
T4 construct: range 54-213; Subunit of the VHLbc complex, expressed from the pACE-VHLbc tricistron; also called VHL; HisTrxVHL; not shown: N-terminal six-histidine-thioredoxin fusion tag
T4 sequence (P40337 54-213): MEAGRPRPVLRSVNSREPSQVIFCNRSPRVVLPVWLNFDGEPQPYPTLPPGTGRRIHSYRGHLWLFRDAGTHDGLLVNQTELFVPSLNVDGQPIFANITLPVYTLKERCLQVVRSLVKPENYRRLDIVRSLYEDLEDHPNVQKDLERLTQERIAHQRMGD
In words: co-expression in E. coli, Ni2+ affinity capture by the tag on VHL, SDS-PAGE.

B1: full-length human RAP30 (other, UniProt P13984 1-249, looked up)
chain: MAERGELDLTGAKQNTGVWLVKVPKYLSQQWAKASGRGEVGKLRIAKTQGRTEVSFTLNEDLANIHDIGGKPASVSAPREHPFVLQSVGGQTLTVFTESSSDKLSLEGIVVQRAECRPAASENYMRLKRLQIEESSKPVRLSQQLDKVVTTNYKPVANHQYNIEYERKKKEDGKRARADKQHVLDMLFSAFEKHQYYNLKDLVDITKQPVVYLKEILKEIGVQNVKGIHKNTWELKPEYRHYQGEEKSD
notes: Stated to be full-length; also called hRAP30
Regarding B1, the binding result in experiment [1] was “binds”.

B2: His6-tagged Snu17p (other, yeast, UniProt P40565 1-148, looked up)
chain: MNKIQQINDKELQSGILSPHQSWHNEYKDNAYIYIGNLNRELTEGDILTVFSEYGVPVDVILSRDENTGESQGFAYLKYEDQRSTILAVDNLNGFKIGGRALKIDHTFYRPKRSLQKYYEAVKEELDRDIVSKNNAEKLILAKKDQPN
notes: Stated to be full-length; subunit of the yeast RES complex; also called Snu17p-NHis; not shown: six-histidine tag fused to the N-terminus
Regarding B2, the binding result in the experiment with Pml1p and with Bud13p was “binds” each time.

B3: full-length elongin b (other, human, UniProt Q15370 1-118, looked up)
chain: MDVFLMIRRHKTTIFTDAKESSTVFELKRIVEGILKRPPDEQRLYKDDQLLDDGKTLGECGFTSQTARPQAPATVGLAFRADDTFEALCIEPFSSPPELPDVMKPQDSGSSANEQAVQ
notes: Stated to be full-length
On to B3, for which the binding result in experiment [2] is on record as “binds”.
